Assay results taken from the DeepSol protein solubility set.

Assay: soluble on expression in E. coli; label from the status in PepcDB or PDB records

| Sequence | soluble on expression in E. coli |
| --- | --- |
| KKKPLIGMVHLKPLPGSYHYNDNFDDIVDFAIKEAKKLEEAGFDAVMIENFGDAPFKKEADKITIASMAVIAKAIKEEVSLPLGINILRNDAIGAYSIAYVVKADFIRVNVLSGVAFTDQGIIEGKAYELAKLKKLLPSKIKVFADVHVKHAYHFIDFESSLLDTVERGLADAVIISGKRTGKEVDIEKLKLAKELVDVPVIVGSGTNYNNLRILWSYADGFIIGTWIKKDGKANNEIDIDRAKKIVNLANKLKM | not soluble |
| KKLLLIGAGRISYYLLNILKNNRIKVKLIEQKMDRAQTFSQVFPEVSVILGDGTAKDLLLEESAASYDAVATLTGVDEENIITSMFLESLGVHKNITKVNRTSLLEIVDTRETTTIVTPKSIAVDTVMHFVRGHYNA | not soluble |
| KKNLLYLGLTGYLLFALCTRLQAQTDSLQAHRYVTRATMYGVGFTNVFDTYLSPQEYKGIDFRISRETIRMTKLFDGNVSVQNFFQADVGYTHNRADNNNTFSGLVNWNYGLHYQFRLTENFKLLAGGLFDVNGGFVYNLRNSNNPASARAYVNLDASGMAIWHLKIKRYPMVLRYQVNVPMIGLMFSPHYGQSYYEIFSLGNSSGVIQFTSLHNQPSLRQMLSVDLPIGYTKMRFSYLADLQQSNVNGIKTHTYSHVFMVGFVKDLYRVSNKKGANLPPSVRAY | not soluble |
| KLKDIAKKILVGGEKPSDFQKEKDQVYKYPILSNSRKADDFLGYSKTFRIAEKSITVSARGTIGAVFYRDFSYLPAVSLICFIPKPEFNINFLFHALKATKFHKQGSGTGQLTMAQFKEYQVYIPSLKKQQEIAATLDP | soluble |
| KMKLYNFWRSGTSHRLRIALNLKGVPYEYLAVHLGKEEHLKDAFKALNPQQLVPALDTGAQVLIQSPAIIEWLEEQYPTPALLPADADGRQRVRALAAIVGCDIHPINNRRILEYLRKTFGADEAAINAWCGTWISAGFDAYEALLAVDPKRGRYSFGDTPTLADCYLVPQVESARRFQVDLTPYPLIRAVDAACGELDAFRRAAPAAQPDSA | soluble |
| KNYDLSDLPGPPSKPQVTDVTKNSVTLSWQPGTPGTLPASAYIIEAFSQSVSNSWQTVANHVKTTLYTVRGLRPNTIYLFMVRAINPQGLSDPSPMSDPVRTQD | soluble |
| KPGAPWWKSAVFYQVYPRSFKDTNGDGIGDFKGLTEKLDYLKGLGIDAIWINPHYASPNTDNGYDISDYREVMKEYGTMEDFDRLMAELKKRGMRLMVDVVINHSSDQHEWFKSSRASKDNPYRDYYFWRDGKDGHEPNNYPSFFGGSAWEKDPVTGQYYLHYFGRQQPDLNWDTPKLREELYAMLRFWLDKGVSGMRFDTVATYSKTPGFPDLTPEQMKNFAEAYTQGPNLHRYLQEMHEKVFDHYDAVTAGEIFGAPLNQVPLFIDSRRKELDMAFTFDLIRYDRALDRWHTIPRTLADFRQTIDKVDAIAGEYGWNTFFLGNHDNPRAVSHFGDDRPQWREASAKALATVTLTQRGTPFIFQGDELGMTNYPFKTLQDFDDIEVKGFFQDYVETGKATAEELLTNVALTSRDNARTPFQWDDSANAGFTTGKPWLKVNPNYTEINAAREIGDPKSVYSFYRNLISIRHETPALSTGSYRDIDPSNADVYAYTRSQDGETYLVVVNFKAEPRSFTLPDGMHIAETLIESSSPAAPAAGAASLELQPWQSGIYKVK | soluble |
| KPPDPPNRVPEKKVVETSAFGHHVQLVNREGKAVGFIEIKESDDEGLDIHISANSLRPGASLGFHIYEKGSCVRPDFESAGGHFNPLNKEHGFNNPMGHHAGDLPNLEVGADGKVDVIMNAPDTSLKKGSKLNILDEDGSAFIIHEQADDYLTNPSGNSGARIVCGALLGNNEKQ | soluble |
| KPTEPHQFAQQVLYDLDQQPRIIAQLSHQQPMLLYFWGTWCRYCQFTSAAVQQLANEKIPILTIALKSGDEQDISNNYLTQQKYTFPTINDPDGNIAKNWTIQATPTIIFIKDGKIVEYTTGLTSYWGLKSRLW | not soluble |
| KRELTVLDLHPGAGKTRRVLPQLVREAVKKRLRTVILAPTRVVASEMYEALRGEPIRYMTPAVQSERTGNEIVDFMCHSTFTMKLLQGVRVPNYNLYIMDEAHFLDPASVAARGYIETRVSMGDAGAIFMTATPPGTTEAFPPSNSPIIDEETRIPDKAWNSGYEWITEFDGRTVWFVHSIKQGAEIGTCLQKAGKKVLYLNRKTFESEYPKCKSEKWDFVITTDISEMGANFKADRVIDPRKTIKPILLDGRVSMQGPIAITPASAAQRRGRIGRNPEKLGDIYAYSGNVSSDNEGHVSWTEARMLLDNVHVQGGVVAQLYTPEREKTEAYEGEFKLKTNQRKVFSELIRTGDLPVWLAFQVASANVEYHDRKWCFDGPNEHLLLENNQEIEVWTRQGQRRVLKPRWLDGRITSDHLNLKSFKEFASGKR | soluble |
| KTLPRDEKEKQIADSKERLKSDTQKVKDAKNADAIKKAFEEGKVNIPQAHIPGDLNKDKEKLLAELKQKADDTEKAIDVDKT | not soluble |
| LAIFLIDLPPSDMERRLGDALTVYVDAMRYPRGTETLRAPMWLEHIRRRGWQAVAAVEVTAAEQAEAADTTALPSAAELSNAPMLGVAYGYPGAPGQWWQQQVVLGLQRSGFPRLAIARLMTSYFELTELHILPRAQGRGLGEALARRLLAGRDEDNVLLSTPETNGEDNRAWRLYRRLGFTDIIRGYHFAGDPRAFAILGRTLPL | not soluble |
| LDFDILTNDGTHRNMKLLIDLKNIFSRQLPKMPKEYIVKLVFDRHHESMVILKNKQKVIGGICFRQYKPQRFAEVAFLAVTANEQVRGYGTRLMNKFKDHMQKQNIEYLLTYADNFAIGYFKKQGFTKEHRMPQEKWKGYIKDYDGGTLMECYIHPYVDYGR | soluble |
| LDNEMLTLDIVASDLLTLQALNAARLKEAGAVDATFVTKAINEQPLNLGQGIWLSDSAEGNLRSAIAVSRAANAFDVDGETAAMLVSVAMNDDQPIAVLKRLADLLLDNKADRLLKADAATLLALLTSDDAPTDDV | not soluble |
| LEQVNDKRISPLRPMRLRLIPLKCKTQPKKGKLSLQSVQKIYVNPRSNGTFKRVPLAGDLFKSRMRQPERDMQKNKLHDSDWQSNM | soluble |
| LFTESAKAVLAIAQEEAKYFRHQSVGSEHLLLALVLEPNGIAGKTLRQLNTDTEDIREEIEHLSGYGTMQSPMGNNNLYLPYSPRAKQIFAYAGDEAKRLGAQKIGTEHLLLGLLRDEEILASRILVNLGLSLSKMRQLLLKKMG | not soluble |
| LGRLFGTDGVRGVANLELTAELAYKLGQAGAYVLTSETKHTPKILVGMDTRISGDMLEASLVAGLCSVGAEVACLGIAPTPTVAYLTRYYNADAGVVISASHNPYEFNGIKFFNSKGYKLSDALEERIESIILDNSEKIQLPTGEKIGRKIEIESPLDDYVNFIKSTIKGDLKGLKVAIDCANGASYQVAPVTFFELGADVCVINNEPDGVNINKDCGSTHIEQLQKFVIESGADVGLAFDGDADRVLAVDENGNMVDGDQIMAIIGLELKKQGKLTNNTIVATVMSNLGLDIMAKREGINIVKTKVGDRYVLENMLENGHVLGGEQSGHIIFLEHSTTGDGILTGAQLLNVVKSSGKKLSELASIMQVLPQVLMNARVSNQNKEKYLEDEVICEMCKELENEFRDEGRVLIRPSGTEPLVRVMIEGKDRDYIEKRALELVKVIEERLG | soluble |
| LGSPMAYFVENFWGEKNSGFDVLYHNMKHGQISTKELADFVRERATIEEAYSRSMTKLAKSASNYSQLGTFAPVWDVFKTSTEKLANCHLDLVRKLQELIKEVQKYGEEQVKSHKKTKEEVAGTLEAVQTIQSITQALQKSKENYNAKCVEQERLKKEGATQREIEKAAVKSKKATDTYKLYVEKYALAKADFEQKMTETAQKFQDIEETHLIHIKEIIGSLSNAIKEIHLQIGQVHEEFINNMANTTVESLIQKFAESKGTGKERPGLIEFEECD | soluble |
| LGTERQREHPFIVTEPGEVARGKKNGLDYLFHLYEQCREFLLQVQTIAKDRGEKCPTKVTNQVFRYAKKSGASYINKPKMRHYVHCYALHCLDEEASNALRRAFKERGENVGSWRQACYKPLVNIACRHGWDIDAVFNAHPRLSIWYVPTKLRQLCHLERNNAVAAAAALVGGISCTGSSTSGRGGCGGDDLRF | soluble |
| LKLTPRQYNDVYEVNYDFINNVRYLMDDVVRGYDYALERYYDFLDVRNDDLRWILSSAQYRRFMRAEHFYRPIYAHENKWHFRIYLVYNNVNFFYYGKPHHYASYCGGHYRTHFNNVSYYKTHYRDHYRHDVYDGHYRIRHDRMTYDMHRRRDFNIAVRPPQKEHHRPATPPQTRPNRPQIHPDRP | not soluble |
| LLHGDFELAVPGGPVAAYYAAPAGREQLPIVLVVQEIFGLHEHIKDVCRRLAHDGYLAVSVNLYQRQGDASRYDNIPGLVAELVSKVPDEQVHADLDASLAWAAAHGGDGARVGVTGFCWGGRTTWMYAARNPAVKAGVAWYGRLSSGHGPLIKQVPLDVAGSLHAPVLGLYGGKDESIPLDDVRAMEARLQQGGAPAQASRIVVYPQAGHAFLADYRPSYRAADAQDGWRRMLDWFALYL | not soluble |
| LLSPPIALKPLDSSAKWRIIYWNPNGCDKTCLKQLNMLGRVRLSFGRKLYQVDEWLLLSNKDSLIAEELKPILKEQDIHVAALSLTEMSKLSTLYPEAKIFIANPDNYLILSYQPGCNPGDIYKDLKLLLNTTEIKSG | soluble |
| LMINDVPGLVTAWWDEELQALRIKWFTEYAEGSAVADAVEFAMTYVNENGVKNWLCDLSESQEALKAEDQEWVQTEFKRLIAESSLEKVVLIPPLPETGQDTEWLKDWEANTKRDYGGQIDARLLSEEGEIQRFFEKG | not soluble |
| LPGRFQRSDVERVVTACSAALGLSSACLRALLVMVHATRPSDWRDEQRDAVCFMQQVQVAARLGVTPRALRYQEARLERLGLLRRNVAADGSRGRFGGGDLIQGISFAPLIEAFPSLLRIAEQLEAAERERQVLRRRVSAARRILSQTLTRLAALDKAVPGLTEVLASMPRRYDALDGSELGALLQRVDKAAREALRHLEVQQVSSGVPENSFRPHIQDTTQENPVCSGSSAIERTARKRADSIKPDAAPDGTASCYEKKHGLADRGFKPRYLDTFTPTQLYEAASPDMQMYLDAGRRSDSTLTAHDFIQAAIAILPALGVNASAWDEAADTMGDLPAALCVLVLDANRYRPVNPVWSPGGMLRAMTARARSGGLNLHGSLIALQRRAG | not soluble |
| LQELETAVAETGFSRFPVTGKDGSYLGYVHIKDVLDRFDHSSPDTIIHRSEIRPLIIVDAAGTMDEALQSMHSKSAHMAQVRDRGLLLGVITLEDLIEEYVGTFSDWTHEQS | not soluble |
| LQERELAKAAQEAEKKGEAFPDVPVTLYEAIVRDYTGRTPEAREQTLIVTHLNEDRRVLNSMIQDALAKPGEQQVTVPVLTTANIRDGELRRLSTWEAHPGALALVDNVYHRIAGISKEDGLITLEDKAGNTRLISPREAAAEGVTLYNPETIRVGAGDRMRFTKSDRERGYVANSVWTVTAVSGDSVTLSDGKQTRVVRPGQDRAEQHIDLAYAITAHSAQGASETFAIALEGTEGGRKQMAGFESAYVALSRMKQHVQVYTDDRQGWVKAINSAEQKGTAHDVLEPKSEREMMNAERLFSTARELRDVAAGRAVLRNAGLAQGDSRARFIAPGRKYPQPYVALPAFDRNGKSAGIWLNPLTTDDGAGLRGFTGEGRVKGSEEAQFVALQGSRNGESLLAGSMQDGVRIARENPDSGVVVRIVGDGRPWNPVAITGGRVWGDIPDSNVQPGAGNGEPVTAEILAQRQAEEAVRRETERRADEIVRKMAEDKSDLPEEKTAQAVREIAGQEQDRMTPPEREPPLPESVLREPQRER | not soluble |
| LRVFSSDGKLIAEFGEMRRTPIRFAEIPPNFINALLSAEDDNFANHYGVDPSSLMRAATQLVKSGHIQSGGSTITMQVAKNFFLTSERSFSRKTTEILLALQIERQLTKDEILELYVNKIYLGNRAYGIEAAAQVYYGKSIRDVSLAQMAMIAGLPKAPSRFNPLANA | not soluble |
